For four proteins, Km and kcat results are on record in US10202584B2, “Red-shifted luciferase-luciferin pairs for enhanced bioluminescence” (The Regents of the University of California, priority 2016, dated 2019).

Substrate in data set [1]: O=c1c(Cc2ccccc2)nc2c([Se]c3ccccc3)[nH]c(-c3ccccc3)cn1-2
Nature of the data set: purified protein, by the assay type. As to conditions: other: apparent, 100 pM enzyme, substrate 0.78 to 50 μM, assay buffer pH 6.0, mean ± s.d., n = 3, 37.0 °C.

Substrate in data set [2]: O=c1c(Cc2ccccc2)nc2c(-c3ccccc3)[nH]c(-c3ccccc3)cn1-2
Nature of the data set: purified protein, by the assay type. Particulars: other: apparent, 100 pM enzyme, substrate 0.78 to 50 μM, assay buffer pH 6.0, mean ± s.d., n = 3, 37.0 °C.

B1: yeLuc, NanoLuc variant yeLuc0.8-F1L/A14D/V27L/Q69R/R112Q/L142R (yeLuc0.8 = NanoLuc-L18Q/D19A/S28T/C164S), SEQ ID NO: 4 (Oplophorus gracilirostris; … (protein)
chain: MVLTLEDFVGDWRQTDGYNQAQVLEQGGLTSLFQNLGVSVTPIQRIVLSGENGLKIDIHVIIPYEGLSGDRMGQIEKIFKVVYPVDDHHFKVILHYGTLVIDGVTPNMIDYFGQPYEGIAVFDGKKITVTGTLWNGNKIIDERRINPDGSLLFRVTINGVTGWRLSERILA
On to B1, for which, in data set [1], the Km (as a rule, the concentration of substrate that gives half-maximal velocity) was found to be 11.9 ± 0.9 µM and the kcat (as a rule, the maximal rate divided by the concentration of active sites) came to 175 ± 5 s⁻¹.

B2: teLuc, NanoLuc variant D19S/D85N/C164H, SEQ ID NO: 2 (Oplophorus gracilirostris; … (protein)
chain: MVFTLEDFVGDWRQTAGYNLSQVLEQGGVSSLFQNLGVSVTPIQRIVLSGENGLKIDIHVIIPYEGLSGDQMGQIEKIFKVVYPVDNHHFKVILHYGTLVIDGVTPNMIDYFGRPYEGIAVFDGKKITVTGTLWNGNKIIDERLINPDGSLLFRVTINGVTGWRLHERILA
As for B2, in data set [2], the Km was 10.2 ± 0.4 µM and the kcat was 88.1 ± 0.1 s⁻¹.

B3: yeLuc0.8, NanoLuc variant L18Q/D19A/S28T/C164S, SEQ ID NO: 3 (Oplophorus gracilirostris; … (protein)
chain: MVFTLEDFVGDWRQTAGYNQAQVLEQGGVTSLFQNLGVSVTPIQRIVLSGENGLKIDIHVIIPYEGLSGDQMGQIEKIFKVVYPVDDHHFKVILHYGTLVIDGVTPNMIDYFGRPYEGIAVFDGKKITVTGTLWNGNKIIDERLINPDGSLLFRVTINGVTGWRLSERILA
Turning to B3, the Km in data set [1] was 6.3 ± 0.5 µM.

B4: Antares2 (Antares with NanoLuc replaced by teLuc, D19S/D85N/C164H; fused to CyOFP1) (Oplophorus gracilirostris; … (protein)
chain: MVFTLEDFVGDWRQTAGYNLSQVLEQGGVSSLFQNLGVSVTPIQRIVLSGENGLKIDIHVIIPYEGLSGDQMGQIEKIFKVVYPVDNHHFKVILHYGTLVIDGVTPNMIDYFGRPYEGIAVFDGKKITVTGTLWNGNKIIDERLINPDGSLLFRVTINGVTGWRLHERILA
Take B4: in data set [2], the Km came to 9.7 ± 0.2 µM and the kcat was 86.1 ± 0.7 s⁻¹.
